Results as given in patent US20160184446A1, “METHOD OF INHIBITING BODY CAVITY FLUID ACCUMULATION” (Toray Industries, Inc., priority 2012, published 2016).

Tested on: gastric cancer peritoneal metastasis mouse models (GCIY-EGFP cells)
Experiment: Ascites accumulation in gastric cancer peritoneal metastasis mouse models, systemic (subcutaneous) administration
Type: in vivo
Details: subcutaneous (systemic), 5,000 U/mouse/dose, twice a week for 4 weeks; ascites collected 2 weeks after final administration; vs PBS control
Protocol: Gastric cancer peritoneal metastasis mouse models were produced by transplanting human gastric cancer cells, GCIY-EGFP cells, intraperitoneally into male KSN nude mice in the same manner as in Example 2.
Administration was initiated on the day after transplantation and performed twice a week for 4 weeks. Phosphate buffer (PBS) was administered to the control group in the same manner. Ascites was collected from the gastric cancer peritoneal metastasis mouse models under anesthesia 2 weeks after the final administration and the liquid volume was measured.
The vertical axis represents the amount of ascites (median; mL).

B1: PEG-mIFN-β: one PEG molecule with a molecular weight of 42,000 covalently bound to recombinant mouse interferon-β (conjugate, UniProt P01575 22-182, looked up)
Interferon beta: INYKQLQLQERTNIRKCQELLEQLNGKINLTYRADFKIPMEMTEKMQKSYTAFAIQEMLQNVFLVFRNNFSSTGWNETIVVRLLDELHQQTVFLKTVLEEKQEERLTWEMSSTALHLKSYYWRVQRYLKLMKYNSYAWMVVRAEIFRNFLIIRRLTRNFQN
modifications: 42 kDa PEG
  accumulation of ascites (amount of ascites): remarkably inhibited
